Test results reported in patent US20240376185A1 (SMIVET B V, published 2024).

T1: recombinant tetanus toxin fragment C (rTTC) (Clostridium tetani, UniProt P04958 865-1315)
T1 sequence: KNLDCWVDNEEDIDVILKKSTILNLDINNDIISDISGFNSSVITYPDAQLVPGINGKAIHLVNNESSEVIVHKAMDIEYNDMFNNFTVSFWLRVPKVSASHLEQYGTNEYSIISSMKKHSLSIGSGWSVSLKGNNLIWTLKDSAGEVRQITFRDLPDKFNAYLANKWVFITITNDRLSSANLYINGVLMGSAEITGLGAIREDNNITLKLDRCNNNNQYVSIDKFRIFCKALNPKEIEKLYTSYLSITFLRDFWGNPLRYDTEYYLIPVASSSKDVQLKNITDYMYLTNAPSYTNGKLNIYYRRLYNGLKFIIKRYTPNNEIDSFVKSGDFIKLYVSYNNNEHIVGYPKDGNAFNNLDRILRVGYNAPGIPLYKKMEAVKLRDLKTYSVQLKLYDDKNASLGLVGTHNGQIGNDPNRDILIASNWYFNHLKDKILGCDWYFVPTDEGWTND

B1: SVT15L (VHH)
VHH: QVQLQESGGGLVQTGGSLRLSCRASGRAFANYHFGWFRQAPGKDREFVASISWKGGSTYYANFALGRFTSSVDRAESSVYLQMSGLTPEDTATYYCAAHDGGDWNYHTGMDYWGKGILVTVSS
B2: SVT13L (VHH)
VHH: QVQLQESGGGLVQAGGSLRLSCAVSGTNFDDYAIGWFRQAPGKRREAVACISKTDGVTRYGNGVKGRFTISSDEARNTVFLQMNDLKDEDTAIYYCIGDFKSCGMGYKPIDHWGRGIQVTVSS
B3: SVT22L (VHH)
VHH: QVQLQESGGGLVQAGESLRLSCTASGISFDDYAIGWFRQAPGQQRKGVACISKADGRTDYLGSVKGRFTLSTDNTKNTVHLQMNNLKPEDTALYTCAAEYKSCGMGYKPIDYWGQGMQVTVSS
B4: SVT02-GS2-SVG06M4-H6 (bispecific antibody)
chain: QVQLQQSGGGSVQAGGSLRLSCVGPQRTFSTYGMGWFRQAPGKEREFVAGINYKGDTTYYADSVKGRFTISRDNAKNTLYLQMDSLKPEDRAVYQCARKGGLGGDYRDAGQYRYWGQGTQVTVSSGGGGSGGGSEVQLVESGGALVQPGGSLRLSCAASGFPFSAYDMTWVRQAPGQGLEWVSTIHKSGGITTYADSVKGRFTISRDNAKNTLYLQMNNLESEDTAVYYCAKALRAHNSDYVGRNALGSWGQGTQVTVSSHHHHHH
B5: SVG13L (VHH)
VHH: QVQLQESGGGLVQPGGSLRLSCEASGFTFDDYGMSWVRQAPGKGLEWVSSLTPNGGSTYYADSVKGRFTISRDNAKNTLYLQMNSLKPEDTALYYCAKNSYYGAMDYWGKGTLVTVSS
B6: SVT34L (VHH)
VHH: QVQLQESGGGLVQPGGSLRLSCAASGRTISSYAMGWFRQAPGKQREFVAAISRSGGNTYYTDSVKGRFIISRDNAKNTLYLQMNNLKPEETAVYYCAADPNLMYESKWKYRALEAWGQGTLVTVSS

Tests used:
[1] = target: T2, tetanus neurotoxin (TeNT), authentic tetanus holotoxin (Clostridium tetani, UniProt P04958 2-1315); assay: BLI (Octet Red96): biotinylated SDA on SA sensor, TeNT as analyte
Target sequence in this assay (P04958 2-457 limits assumed): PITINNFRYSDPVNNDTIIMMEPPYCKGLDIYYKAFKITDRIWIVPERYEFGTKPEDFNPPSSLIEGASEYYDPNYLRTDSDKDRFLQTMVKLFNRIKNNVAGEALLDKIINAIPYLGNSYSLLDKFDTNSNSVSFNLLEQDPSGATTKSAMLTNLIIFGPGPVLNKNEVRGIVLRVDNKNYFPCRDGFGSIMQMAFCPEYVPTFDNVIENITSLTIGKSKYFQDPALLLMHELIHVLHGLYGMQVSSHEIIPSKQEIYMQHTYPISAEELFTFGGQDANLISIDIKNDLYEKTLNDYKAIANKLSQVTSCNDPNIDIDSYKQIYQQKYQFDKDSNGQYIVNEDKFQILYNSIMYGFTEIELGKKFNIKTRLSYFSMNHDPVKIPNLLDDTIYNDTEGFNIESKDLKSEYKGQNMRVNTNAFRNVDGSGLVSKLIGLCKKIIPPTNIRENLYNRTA

[2] = target: T3, tetanus neurotoxin (TeNT), authentic tetanus holotoxin (Clostridium tetani, UniProt P04958 2-1315); assay: competition ELISA on TeNT, binder biotinylated; competitor SVT08L
T3 sequence (P04958 2-457 limits assumed, chain 1 of 2): as the sequence (P04958 2-457 limits assumed) above
T3 sequence (P04958 458-1315 limits assumed, chain 2 of 2): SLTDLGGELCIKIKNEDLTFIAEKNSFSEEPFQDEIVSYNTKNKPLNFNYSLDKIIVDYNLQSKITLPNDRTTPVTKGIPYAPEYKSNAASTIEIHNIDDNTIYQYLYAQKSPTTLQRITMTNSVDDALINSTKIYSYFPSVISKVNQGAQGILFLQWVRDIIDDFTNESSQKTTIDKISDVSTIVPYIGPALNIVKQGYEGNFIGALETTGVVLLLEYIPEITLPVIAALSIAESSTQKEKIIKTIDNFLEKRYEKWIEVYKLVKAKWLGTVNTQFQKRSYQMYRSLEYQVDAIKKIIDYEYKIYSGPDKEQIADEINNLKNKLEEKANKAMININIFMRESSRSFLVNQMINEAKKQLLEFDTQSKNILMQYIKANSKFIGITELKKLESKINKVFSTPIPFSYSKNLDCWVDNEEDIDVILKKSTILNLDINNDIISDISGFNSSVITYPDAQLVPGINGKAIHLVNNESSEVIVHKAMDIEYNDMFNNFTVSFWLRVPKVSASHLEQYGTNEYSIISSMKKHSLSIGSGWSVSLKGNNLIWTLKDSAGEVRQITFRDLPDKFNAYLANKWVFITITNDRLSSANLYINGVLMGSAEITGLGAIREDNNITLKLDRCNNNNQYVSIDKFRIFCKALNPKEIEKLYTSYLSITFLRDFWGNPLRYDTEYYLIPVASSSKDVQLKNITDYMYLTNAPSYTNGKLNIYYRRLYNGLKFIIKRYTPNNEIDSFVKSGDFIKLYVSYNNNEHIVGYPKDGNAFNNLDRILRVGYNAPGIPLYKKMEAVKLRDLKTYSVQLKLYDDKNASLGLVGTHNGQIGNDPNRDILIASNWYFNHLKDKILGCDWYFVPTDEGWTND

[3] = target: T3, tetanus neurotoxin (TeNT), authentic …; assay: competition ELISA on TeNT, binder biotinylated; competitor SVT15L-3FW4M
[4] = target: T3, tetanus neurotoxin (TeNT), authentic …; assay: competition ELISA on TeNT, binder biotinylated; competitor SVT15L
[5] = target: T1, recombinant tetanus toxin fragment C …; assay: ELISA, directly coated rTTC, unlabelled binder
[6] = target: T3, tetanus neurotoxin (TeNT), authentic …; assay: GT1b-TeNT inhibition ELISA, EC at A450 0.59
[7] = target: T3, tetanus neurotoxin (TeNT), authentic …; assay: competition ELISA on TeNT, binder biotinylated; competitor SVT34L
[8] = target: T3, tetanus neurotoxin (TeNT), authentic …; assay: competition ELISA on TeNT, binder biotinylated; competitor mAb 11n185
[9] = target: T3, tetanus neurotoxin (TeNT), authentic …; assay: competition ELISA on TeNT, binder biotinylated; competitor mAb 6F57
[10] = target: T3, tetanus neurotoxin (TeNT), authentic …; assay: competition ELISA on TeNT, binder biotinylated; competitor SVT16L
[11] = target: T3, tetanus neurotoxin (TeNT), authentic …; assay: ELISA, TeNT captured with cAb-TT2, biotinylated binder
[12] = target: T3, tetanus neurotoxin (TeNT), authentic …; assay: GT1b-TeNT inhibition ELISA, unlabelled binder
[13] = target: T3, tetanus neurotoxin (TeNT), authentic …; assay: ELISA, directly coated TeNT, biotinylated binder
[14] = target: T3, tetanus neurotoxin (TeNT), authentic …; assay: competition ELISA on TeNT, binder biotinylated; competitor SVT03L
[15] = target: T3, tetanus neurotoxin (TeNT), authentic …; assay: ELISA, directly coated TeNT, unlabelled binder
[16] = target: T3, tetanus neurotoxin (TeNT), authentic …; assay: competition ELISA on TeNT, binder biotinylated; competitor mAb 14F5
[17] = target: T3, tetanus neurotoxin (TeNT), authentic …; assay: competition ELISA on TeNT, binder biotinylated; competitor SVT02L
[18] = target: T3, tetanus neurotoxin (TeNT), authentic …; assay: competition ELISA on TeNT, binder biotinylated; competitor SVT13L
[19] = target: T3, tetanus neurotoxin (TeNT), authentic …; assay: competition ELISA on TeNT, binder biotinylated; competitor SVT22L
[20] = target: T3, tetanus neurotoxin (TeNT), authentic …; assay: ELISA, TeNT captured with cAb-TT2, unlabelled binder
[21] = target: T3, tetanus neurotoxin (TeNT), authentic …; assay: competition ELISA on TeNT, binder biotinylated; competitor mAb 6E7
[22] = target: T3, tetanus neurotoxin (TeNT), authentic …; assay: competition ELISA on TeNT, binder biotinylated; competitor SVT06L
[23] = target: dog IgG (chrompure dog IgG) (dog)
[24] = target: T2, tetanus neurotoxin (TeNT), authentic …; assay: bridging ELISA: coated TeNT, SDA, biotinylated TeNT, StrepPO (bivalent binding)
Target sequence in this assay (P04958 2-457 limits assumed): as the sequence (P04958 2-457 limits assumed) above

[25] = target: T2, tetanus neurotoxin (TeNT), authentic …; assay: GT1b-TeNT inhibition ELISA
Target sequence in this assay (P04958 2-457 limits assumed, chain 1 of 2): as the sequence (P04958 2-457 limits assumed) above
Target sequence in this assay (P04958 458-1315 limits assumed, chain 2 of 2): as the sequence (P04958 458-1315 limits assumed, chain 2 of 2) above

[26] = target: T2, tetanus neurotoxin (TeNT), authentic …; assay: bridging ELISA: coated TeNT, SDA, biotinylated TeNT, StrepPO (bivalent binding); remark: listed apart in the source
Target sequence in this assay (P04958 2-457 limits assumed, chain 1 of 2): as the sequence (P04958 2-457 limits assumed) above
Target sequence in this assay (P04958 458-1315 limits assumed, chain 2 of 2): as the sequence (P04958 458-1315 limits assumed, chain 2 of 2) above

[27] = target: T2, tetanus neurotoxin (TeNT), authentic …; assay: ELISA: directly coated TeNT, anti-his6 PO
[28] = target: T2, tetanus neurotoxin (TeNT), authentic …; assay: ELISA: directly coated TeNT, goat anti-llama Ig PO
Target sequence in this assay (P04958 2-457 limits assumed, chain 1 of 2): as the sequence (P04958 2-457 limits assumed) above
Target sequence in this assay (P04958 458-1315 limits assumed, chain 2 of 2): as the sequence (P04958 458-1315 limits assumed, chain 2 of 2) above

[29] = target: T2, tetanus neurotoxin (TeNT), authentic …; assay: ELISA: directly coated TeNT, goat anti-llama Ig PO; remark: listed apart in the source
Target sequence in this assay (P04958 2-457 limits assumed, chain 1 of 2): as the sequence (P04958 2-457 limits assumed) above
Target sequence in this assay (P04958 458-1315 limits assumed, chain 2 of 2): as the sequence (P04958 458-1315 limits assumed, chain 2 of 2) above

[30] = target: T2, tetanus neurotoxin (TeNT), authentic …; assay: ELISA: directly coated TeNT, anti-his6 PO; remark: listed apart in the source
Target sequence in this assay (P04958 2-457 limits assumed, chain 1 of 2): as the sequence (P04958 2-457 limits assumed) above
Target sequence in this assay (P04958 458-1315 limits assumed, chain 2 of 2): as the sequence (P04958 458-1315 limits assumed, chain 2 of 2) above

[31] = target: T2, tetanus neurotoxin (TeNT), authentic …; assay: GT1b-TeNT inhibition ELISA; remark: listed apart in the source

Row | Binder | % inhibition of binding [2] [%] | % inhibition of binding [3] [%] | % inhibition of binding [4] [%] | maximal absorbance at 450 nm [5] | concentration giving A450 of 0.59 [6] [µg/mL] | % inhibition of binding [7] [%] | % inhibition of binding [8] [%] | % inhibition of binding [9] [%] | % inhibition of binding [10] [%] | EC resulting in A450 0.2 [11] [ng/mL] | maximal absorbance at 450 nm [11] | minimal absorbance at 450 nm [12] | EC resulting in A450 0.4 [13] [ng/mL] | maximal absorbance at 450 nm [13] | % inhibition of binding [14] [%] | EC resulting in A450 0.2 [15] [ng/mL] | maximal absorbance at 450 nm [15] | % inhibition of binding [16] [%] | % inhibition of binding [17] [%] | % inhibition of binding [18] [%] | further results
1 | B1 | – | – | – | – | – | – | – | – | – | – | – | – | – | – | – | – | – | – | – | – | Kd [1]: 0.413 nM; koff [1]: 3.87e-05 s⁻¹; kon [1]: 93600 M⁻¹ s⁻¹
2 | B2 | 13 | 8 | -19 | 1.1 | 0.082 | 91 | 2 | 0 | 91 | 1.3 | 1.06 | 0.126 | 0.57 | 1.48 | 1 | 1.9 | 1.54 | 5 | 7 | 95 | % inhibition of binding [19]: 92%; EC resulting in A450 0.15 [20]: 4.1 ng/mL; maximal absorbance at 450 nm [20]: 0.487; % inhibition of binding [21]: 2%; % inhibition of binding [22]: 1%
3 | B3 | 1 | 11 | 2 | 0.981 | 0.105 | 93 | 3 | 10 | 92 | 2.6 | 0.799 | 0.107 | 1.3 | 1.34 | 5 | 2 | 1.59 | 0 | 4 | 95 | % inhibition of binding [19]: 94%; EC resulting in A450 0.15 [20]: 5.4 ng/mL; maximal absorbance at 450 nm [20]: 0.318; % inhibition of binding [21]: 8%; % inhibition of binding [22]: 6%
4 | B4 | – | – | – | – | – | – | – | – | – | – | – | – | – | – | – | – | – | – | – | – | maximal absorbance value [23]: 0.06 A450
5 | B5 | – | – | – | – | – | – | – | – | – | – | – | – | – | – | – | – | – | – | – | – | Effective SDA Concentration at A450 0.3 [24]: > 1000 ng/mL; Effective SDA Concentration at A450 0.56 [25]: > 1000 ng/mL; maximal absorbance value [26]: 0.17 A450; Effective SDA Concentration at A450 0.15 [27]: > 1000 ng/mL; binding result [27]: no binding (tested: 1000 ng/ml (A450 0.15 not reached)); maximal absorbance value [28]: 0.09 A450; Effective SDA Concentration at A450 0.15 [29]: > 1000 ng/mL; maximal absorbance value [30]: 0.08 A450; minimal absorbance value (GT1b-TeNT inhibition) [31]: 0.72 A450; maximal absorbance value [23]: 0.16 A450
6 | B6 | -4 | 14 | 3 | 0.886 | 0.046 | 95 | 2 | 13 | 93 | 3.5 | 0.669 | 0.103 | 1.7 | 1.29 | 0 | 1 | 1.54 | 4 | 2 | 93 | % inhibition of binding [19]: 94%; EC resulting in A450 0.15 [20]: 3.2 ng/mL; maximal absorbance at 450 nm [20]: 0.335; % inhibition of binding [21]: 10%; % inhibition of binding [22]: -2%
